From patent publication US20210292396A1

Columns and labels:
Assay in all cases: cell-based or functional assay
[1] = molecular target: Env of HIV isolate 0013095-2.11 (clade C) (HIV)
[2] = molecular target: Env of HIV isolate 0815.v3.c3 (clade ACD) (HIV)
[3] = molecular target: Env of HIV isolate 246-F3.C10.2 (clade AC) (HIV)
[4] = molecular target: Env of HIV isolate 3016.v5.c45 (clade D) (HIV)
[5] = molecular target: Env of HIV isolate 6540.v4.c1 (clade AC) (HIV)
[6] = molecular target: Env of HIV isolate 7165.18 (clade B) (HIV)
[7] = molecular target: Env of HIV isolate BG1168.01 (clade B) (HIV)
[8] = molecular target: Env of HIV isolate BJOX009000.02.4 (clade AE) (HIV)
[9] = molecular target: Env of HIV isolate BS208.B1 (clade A) (HIV)
[10] = molecular target: Env of HIV isolate C1080.c3 (clade AE) (HIV)
[11] = molecular target: Env of HIV isolate DU172.17 (clade C) (HIV)
[12] = molecular target: Env of HIV isolate HXB2.DG (clade B) (HIV)
[13] = molecular target: Env of HIV isolate KER2008.12 (clade A) (HIV)
[14] = molecular target: Env of HIV isolate M02138 (clade AE) (HIV)
[15] = molecular target: Env of HIV isolate MB539.2B7 (clade A) (HIV)
[16] = molecular target: Env of HIV isolate MW965.26 (clade C) (HIV)
[17] = molecular target: Env of HIV isolate PVO.04 (clade B) (HIV)
[18] = molecular target: Env of HIV isolate Q168.a2 (clade AD) (HIV)
[19] = molecular target: Env of HIV isolate Q461.e2 (clade AD) (HIV)
[20] = molecular target: Env of HIV isolate Q769.d22 (clade A) (HIV)
[21] = molecular target: Env of HIV isolate Q769.h5 (clade A) (HIV)
[22] = molecular target: Env of HIV isolate Q842.d12 (clade A) (HIV)
[23] = molecular target: Env of HIV isolate QH209.14M.A2 (clade A) (HIV)
[24] = molecular target: Env of HIV isolate R1166.C1 (clade AE) (HIV)
[25] = molecular target: Env of HIV isolate R3265.c6 (clade AE) (HIV)
[26] = molecular target: Env of HIV isolate RW020.2 (clade A) (HIV)
[27] = molecular target: Env of HIV isolate SO18.18 (clade C) (HIV)
[28] = molecular target: Env of HIV isolate TH023.6 (clade AE) (HIV)
[29] = molecular target: Env of HIV isolate TZA125.17 (clade C) (HIV)
[30] = molecular target: Env of HIV isolate X1632.S2.B10 (clade G) (HIV)
[31] = molecular target: Env of HIV isolate X2088.c9 (clade G) (HIV)
[32] = molecular target: Env of HIV isolate X2131.C1.B5 (clade G) (HIV)
[33] = molecular target: Env of HIV isolate ZM197.7 (clade C) (HIV)
[34] = molecular target: Env of HIV isolate ZM215.8 (clade C) (HIV)
[35] = molecular target: Envelope protein of SIVmac251.30.SG3 (clade NA)
[36] = molecular target: HIV Env of isolate 0077.v1.c16 (HIV)
[37] = molecular target: HIV Env of isolate 00836-2.5 (HIV)
[38] = molecular target: HIV Env of isolate 16936-2.21 (HIV)
[39] = molecular target: HIV Env of isolate 247-23 (HIV)
[40] = molecular target: HIV Env of isolate 3873.v1.c24 (HIV)
[41] = molecular target: HIV Env of isolate 6631.v3.c10 (HIV)
[42] = molecular target: HIV Env of isolate CH119.10 (HIV)
[43] = molecular target: HIV Env of isolate CNE30 (HIV)
[44] = molecular target: HIV Env of isolate CNE53 (HIV)
[45] = molecular target: HIV Env of isolate TV1.29 (HIV)
[46] = molecular target: HIV Env of isolate TZA125.17 (HIV)
[47] = molecular target: HIV Env of isolate X1193.c1 (HIV)
[48] = molecular target: HIV Env of isolate ZM176.66 (HIV)
[49] = molecular target: HIV Env of isolate ZM215.8 (HIV)
[50] = molecular target: HIV Env of isolate ZM249.1 (HIV)

B1: ePGT121.18 (ePGT121.18.H1 VH and ePGT121.17.L1 VL) (antibody, V domains shown)
VH: QMQLQESGPGLVKPGETLSLTCSVSGASISSSYWSWLRETPGKGLEWIGYTHHSGDTNYAPSLKSRVHLGLHPSKNQVSLSLTSVTAADTAVYYCARTLHGRRIYGVVAFNEYYTYFYWPTWGKGTQVTVSS
VL: SDISVAPGETVRITCGGESIGSRAVQWYQHRPGQAPRLIIYNNQDRPPGIPERFSGSPDIDFGTTATLTISNVEAGDEATYYCHIWDSRRPTNWELGPGTTLTVL
With B1 the IC50, pseudovirus neutralization [1] was 0.537 µg/mL, the IC50, pseudovirus neutralization [2] was 0.001 µg/mL and the IC50, pseudovirus neutralization [3] was 4.8 µg/mL. It also gave an IC50, pseudovirus neutralization [4] of over 50 µg/mL, an IC50, pseudovirus neutralization [5] of over 50 µg/mL and an IC50, pseudovirus neutralization [6] of 0.001 µg/mL. It also gave an IC50, pseudovirus neutralization [7] of over 50 µg/mL, an IC50, pseudovirus neutralization [8] of 0.042 µg/mL and an IC50, pseudovirus neutralization [9] of over 50 µg/mL. For the same binder, the IC50, pseudovirus neutralization [10] was over 50 µg/mL, the IC50, pseudovirus neutralization [11] was 0.003 µg/mL and the IC50, pseudovirus neutralization [12] was 0.003 µg/mL. It also gave an IC50, pseudovirus neutralization [13] of 0.003 µg/mL, an IC50, pseudovirus neutralization [14] of over 50 µg/mL and an IC50, pseudovirus neutralization [15] of over 50 µg/mL. It also gave an IC50, pseudovirus neutralization [16] of 0.003 µg/mL, an IC50, pseudovirus neutralization [17] of 0.003 µg/mL and an IC50, pseudovirus neutralization [18] of 2.93 µg/mL. The IC50, pseudovirus neutralization [19] was over 50 µg/mL, the IC50, pseudovirus neutralization [20] was over 50 µg/mL and the IC50, pseudovirus neutralization [21] was over 50 µg/mL. It also gave an IC50, pseudovirus neutralization [22] of 0.002 µg/mL, an IC50, pseudovirus neutralization [23] of over 50 µg/mL and an IC50, pseudovirus neutralization [24] of over 50 µg/mL. The IC50, pseudovirus neutralization [25] was over 50 µg/mL, the IC50, pseudovirus neutralization [26] was 0.002 µg/mL and the IC50, pseudovirus neutralization [27] was 0.003 µg/mL. For the same binder, the IC50, pseudovirus neutralization [28] was over 50 µg/mL, the IC50, pseudovirus neutralization [29] was 0.028 µg/mL and the IC50, pseudovirus neutralization [30] was over 50 µg/mL. It also gave an IC50, pseudovirus neutralization [31] of 0.002 µg/mL, an IC50, pseudovirus neutralization [32] of 0.0009 µg/mL and an IC50, pseudovirus neutralization [33] of over 50 µg/mL. For the same binder, the IC50, pseudovirus neutralization [34] was 0.006 µg/mL, the IC50, pseudovirus neutralization [35] was over 50 µg/mL and the IC80, pseudovirus neutralization (M1) [36] was over 50 µg/mL. The IC80, pseudovirus neutralization (M2) [36] was over 50 µg/mL, the IC80, pseudovirus neutralization (M1) [37] was over 50 µg/mL and the IC80, pseudovirus neutralization (M2) [37] was over 50 µg/mL. For the same binder, the IC80, pseudovirus neutralization (M1) [38] was 0.003 µg/mL, the IC80, pseudovirus neutralization (M2) [38] was 0.005 µg/mL and the IC80, pseudovirus neutralization (M1) [39] was over 50 µg/mL. For the same binder, the IC80, pseudovirus neutralization (M2) [39] was over 50 µg/mL, the IC80, pseudovirus neutralization (M1) [40] was 0.006 µg/mL and the IC80, pseudovirus neutralization (M2) [40] was 0.011 µg/mL. It also gave an IC80, pseudovirus neutralization (M1) [41] of 0.04 µg/mL, an IC80, pseudovirus neutralization (M2) [41] of 0.044 µg/mL and an IC80, pseudovirus neutralization (M1) [42] of 0.01 µg/mL. The IC80, pseudovirus neutralization (M2) [42] was 0.014 µg/mL, the IC80, pseudovirus neutralization (M1) [43] was 0.013 µg/mL and the IC80, pseudovirus neutralization (M2) [43] was 0.016 µg/mL. It also gave an IC80, pseudovirus neutralization (M1) [44] of 0.006 µg/mL, an IC80, pseudovirus neutralization (M2) [44] of 0.009 µg/mL and an IC80, pseudovirus neutralization (M1) [45] of 0.005 µg/mL. It also gave an IC80, pseudovirus neutralization (M2) [45] of 0.008 µg/mL, an IC80, pseudovirus neutralization (M1) [46] of 0.137 µg/mL and an IC80, pseudovirus neutralization (M2) [46] of 0.186 µg/mL. It also gave an IC80, pseudovirus neutralization (M1) [47] of 0.004 µg/mL, an IC80, pseudovirus neutralization (M2) [47] of 0.005 µg/mL and an IC80, pseudovirus neutralization (M1) [48] of 0.091 µg/mL. The IC80, pseudovirus neutralization (M2) [48] was 0.106 µg/mL, the IC80, pseudovirus neutralization (M1) [49] was 0.023 µg/mL and the IC80, pseudovirus neutralization (M2) [49] was 0.026 µg/mL. For the same binder, the IC80, pseudovirus neutralization (M1) [50] was 0.992 µg/mL and the IC80, pseudovirus neutralization (M2) [50] was 0.874 µg/mL.

B2: ePGT121.15.H2.L1 (antibody, V domains shown)
VH: QMQLQESGPGLVKPGETLSLTCSVSGASISSSYWSWLRETPGKGLEWIGYTHHSGDTNYAPSLKSRVHLGLHPSKNQVSLSLTSVTAADTAVYYCARTLHGRRIYGVVAFNEWFTYFYWEVWGKGTQVTVSS
VL: SDISVAPGETVRISCGGESIGSRAVQWYQHRAGQAPKLIIYNNQDRPPGIPERFSGSPDIDFGTTATLTITNVEAGDEATYYCHIWDSRRPTNWVFGGGTTLTVL
For B2, the neutralization (Table 6 value) [43] was 0.00312 and the neutralization (Table 6 value) [44] was 0.00162.
